Assay results published in patent US20170298096A1 (CANIMGUIDE THERAPEUTICS, published 2017).
Positions of bridges follow the written chain, without caps; N, C: chain ends. No end group written: not given here.

T1: His-tagged P3028 peptide (PGE73) (human)
T1 construct: also called His-tag-P3028; not shown: His-tag
T1 peptide: VFDEFKPLVEEPQNLIK

T2: His-tagged P3028 (human, not fully specified)
T2 construct: the tag is put first after 'PGE73=His-tag-P3028'; also called PGE73; not shown: His-tag
T2 peptide: {His‑tag}-VFDEFKPLVEEPQNLIK


Target: T1, His-tagged P3028 peptide (PGE73)
Assay: PEPSCAN ELISA; peptide on card, His-tagged P3028 in solution
Description: After washing, the peroxidase substrate 2,2′-azine-di-3-ethylbenzthiazoline sulfonate (ABTS) and 2 μL of 3% H2O2 were added. The binding capacity of the mAb was measured as a color development at 405 nm (optical density, OD405). The color development was quantified with a charge-coupled device (CCD)—camera and an image processing system.
The OD405-values obtained by a CCD-camera was considered as raw data values (“rampo values,” “rampo units,” or “rampo scores”). […] First the CCD-camera made a picture of the card before peroxidase coloring and then again a picture after the peroxidase coloring. […] These values were copied into an excel file and labeled as a raw data file. One follow-up manipulation was allowed. Sometimes a well can contain an air-bubble resulting in a false-positive value. If manual inspection of the cards detect an air-bubble the value are set to 0 for that well.

Row | RAMPO Score | Binder
1 | > 500 rampo units | KKLDTFFVKLSQFTER (P28R variant on PEPSCAN card) [SEQ ID NO: 19]
2 | > 500 rampo units | KKLDTFFVKLSVFTER (P28R variant on PEPSCAN card) [SEQ ID NO: 20]
3 | > 500 rampo units | KKLDTFFVKLSMFTER (P28R variant on PEPSCAN card) [SEQ ID NO: 21]
4 | > 500 rampo units | KKLDTFFVKLSLQTER (P28R variant on PEPSCAN card) [SEQ ID NO: 23]
5 | > 500 rampo units | KKLDTFFVKLSLATER (P28R variant on PEPSCAN card) [SEQ ID NO: 29]
6 | > 500 rampo units | KKLDTFFVKLSLGTER (P28R variant on PEPSCAN card) [SEQ ID NO: 28]
7 | > 500 rampo units | KKLDTFFVKLSLNTER (P28R variant on PEPSCAN card) [SEQ ID NO: 25]
8 | > 500 rampo units | KKLDTFFVKLSLSTER (P28R variant on PEPSCAN card) [SEQ ID NO: 27]
9 | > 500 rampo units | KKLDTFFVKLSLPTER (P28R variant on PEPSCAN card) [SEQ ID NO: 26]
10 | > 500 rampo units | KKLDTFFVKLSLHTER (P28R variant on PEPSCAN card) [SEQ ID NO: 24]
11 | > 500 rampo units | KKLDTFFVKLSLRTER (P28R variant on PEPSCAN card) [SEQ ID NO: 30]
12 | > 500 rampo units | KKLDTFFVKLSLFNER (P28R variant on PEPSCAN card) [SEQ ID NO: 31]
13 | > 500 rampo units | KKLDTFFVKLSLFPER (P28R variant on PEPSCAN card) [SEQ ID NO: 32]
14 | > 500 rampo units | KKLDTFFVKLSLFRER (P28R variant on PEPSCAN card) [SEQ ID NO: 33]
15 | > 500 rampo units | KKLDTFFVKLSLMTER (P28R variant on PEPSCAN card) [SEQ ID NO: 22]

More lines, now with the values behind:

Row | Binder | RAMPO Score
16 | KKLDQFFVKLSLFTER (P28R variant on PEPSCAN card) [SEQ ID NO: 6] | > 500 rampo units
17 | KKLDTFSVKLSLFTER (P28R variant on PEPSCAN card) [SEQ ID NO: 10] | > 500 rampo units
18 | KKLDTFVVKLSLFTER (P28R variant on PEPSCAN card) [SEQ ID NO: 11] | > 500 rampo units
19 | KKLDTFTVKLSLFTER (P28R variant on PEPSCAN card) [SEQ ID NO: 12] | > 500 rampo units
20 | KKLDTFLVKLSLFTER (P28R variant on PEPSCAN card) [SEQ ID NO: 13] | > 500 rampo units
21 | KKLDTAFVKLSLFTER (P28R variant on PEPSCAN card) [SEQ ID NO: 7] | > 500 rampo units
22 | KKLDTVFVKLSLFTER (P28R variant on PEPSCAN card) [SEQ ID NO: 8] | > 500 rampo units
23 | KKLDTFFVKVSLFTER (P28R variant on PEPSCAN card) [SEQ ID NO: 14] | > 500 rampo units
24 | KKGDTFFVKLSLFTER (P28R variant on PEPSCAN card) [SEQ ID NO: 4] | > 500 rampo units
25 | KKEDTFFVKLSLFTER (P28R variant on PEPSCAN card) [SEQ ID NO: 5] | > 500 rampo units
26 | KKLDTFFVKLQLFTER (P28R variant on PEPSCAN card) [SEQ ID NO: 15] | > 500 rampo units
27 | KKLDTFFVKLMLFTER (P28R variant on PEPSCAN card) [SEQ ID NO: 16] | > 500 rampo units
28 | KKLDTFFVKLTLFTER (P28R variant on PEPSCAN card) [SEQ ID NO: 17] | > 500 rampo units
29 | KKLDTFFVKLHLFTER (P28R variant on PEPSCAN card) [SEQ ID NO: 18] | > 500 rampo units
30 | RKLDTFFVKLSLFTER (P28R variant on PEPSCAN card) [SEQ ID NO: 3] | > 500 rampo units

Target: T2, His-tagged P3028
Assay: chip ELISA with His-tag labelled P3028, positional scan
Description: Positional scans were performed in each position of the lead cyclic peptide was replaced with each of the other 19 L-amino acids.

Row | binding result | Binder
31 | binds | CLRLNVFCG (bridge 1-8 (inferred); not fully specified) [cyclic peptide CLRLNVFCG]

Target: Artificial Cell Surface (ACS): biotinylated cell surface proteins of PBMCs bound to streptavidin columns
Assay: trypsin-digested dHSA adsorbed on ACS column, MALDI-TOF ms

Row | Percent Absorbed | Binder
32 | 23% | AVMDDFAAFVEK
33 | 3% | YICENQDSISSK
34 | 20% | QNCELFEQLGEYK [albumin fragment O…]
35 | 13% | VHTECCHGDLLECADDR
36 | 22% | NECFLQHK [albumin fragment NECFLQHK]
37 | 36% | SLHTLFGDK
38 | 36% | LKECCEKPLLEK
39 | 1% | DDNPNLPR [albumin fragment DDNPNLPR]
40 | 2% | LDELRDEGK
41 | 71% | KYLYEIAR [albumin fragment KYLYEIAR]
42 | 64% | KVPQVSTPTLVEVSR
43 | 29% | AAFTECCQAADK
44 | 60% | VFDEFKPLVEEPQNLIK
45 | 34% | YLYEIAR [albumin fragment YLYEIAR]
46 | 26% | CCTESLVNR
47 | 42% | RPCFSALEVDETYVPK
48 | 32% | CCAAADPHECYAK
49 | 59% | VPQVSTPTLVEVSR
50 | 41% | FQNALLVR [albumin fragment FQNALLVR]
51 | 35% | LCTVATLR [albumin fragment LCTVATLR]
52 | 8% | FKDLGEENFK

Target: Artificial Cell Surface (ACS): biotinylated cell surface proteins of PBMCs bound to streptavidin columns
Assay: Asp-N-digested dHSA adsorbed on ACS column, MALDI-TOF ms

Row | Percent Absorbed | Binder
53 | 37% | YLSVVLNQLCVLHEKTPVSDRVTKCCCTESLVNRRPFSALEV [Asp-N-generated albumin fragment 475-517]
54 | 100% | DDKETCFAEEGKKLVAASQAALGL [Asp-N-generated albumin fragment 586-609]
55 | 100% | ICTLSEKERQIKKQTALVELVKHKPKATKEQLKAVM [Asp-N-generated albumin fragment 536-572]
56 | 100% | KLCTVATLRETYGEMADCCAKQEPERNECFLQHK [Asp-N-generated albumin fragment 96-130]
57 | 65% | DKLCTVATLRETYGEM [Asp-N-generated albumin fragment 96-112]
58 | 100% | VFLGMFLYEYARRHPDYSVVLLLRLAKTYETTLEKCCAAA [Asp-N-generated albumin fragment 348-388]
59 | 100% | RVTKCCTESLVNRRPCFSALEVDETYVPKEFNAETFTFHA [Asp-N-generated albumin fragment 495-535]
60 | 65% | DSISSKLKECCEKPLLEKSHCIAEVEN [Asp-N-generated albumin fragment 293-319]
61 | 86% | DETYVPKEFNAETFTHA [Asp-N-generated albumin fragment 518-535]
62 | 100% | DHVKLVNEVTEFAKTCVA [Asp-N-generated albumin fragment 62-79]
63 | 100% | LGEENFKALVLIAFAQYLQQCPFEDHVKLVNEVTEFAKTCVA [Asp-N-generated albumin fragment 37-79]
64 | 100% | YSVVLLLRLAKTYETTLEKCCAAADPHECYAKVF [Asp-N-generated albumin fragment 364-398]
65 | 100% | LAKYICENQDSISSKLKECCEKPLLEKHCIAEVEN [Asp-N-generated albumin fragment 283-319]
66 | 87% | DRVTKCCTESLVNRRPCFSALEV [Asp-N-generated albumin fragment 495-517]
